Experimental data: the DeepSol protein solubility set

Test: soluble on expression in E. coli; label from the status in PepcDB or PDB records

**Q.** For “MSLLNKMRCSVSAEVYGEWNKKKNFVAPVYEKDEGQKEQLERILRQSFLFNSLDEKDLNTVILAMQEKKIEASTCLIREGDDGECLYIVQSGELNCSKLIDGEERVVKVVGPGDAFGELALLYNAPRAATVTSVSACDLWELGRDTFNAIVKDAATKRRSMYDSFLKSVHILDGMDAYERGKVADALRTEMFTDGAYIVRQGELGDVFYIVEEGSAVATKSFGPGQPPIEVKKYQAGDYFGELALINEEPRAANVIAHGICKVACLERKSFKRLMGSVQDLLSKKASDLLTMAEEGHHHHHH”, which “soluble on expression in E. coli” value is on record?
**A.** soluble

**Q.** For “MGSDKIHHHHHHMHFDIKDLKLFLAISEEGSITRGAEKTYMSAASGSVRIRNLEQSINLRLLYRSSKGITLSSAGETFKHHASLIVNQMEMLRSDMQEHVKGIKGHVRIFSSITAIAEYLPPLLSHFLTLYNDVNIDLREYPSPEIVRSVIEGKTDLGIVAGNITTDNLEILPFRTDRLVLITATDHPFADRKSVTFHELIQYEQISLPEGTGMFEFIRKKAELVPSKLKIRIQVGNFETFCRMVEAKVGIGIMPHSAASRLRQLHEFSIIDLDEFWSLRKLQICARSFDKLPGFTQKLVTMLTAQTE”, which “soluble on expression in E. coli” value is on record?
**A.** not soluble

**Q.** With “MGSDKIHHHHHHMIRINMFSQADSVAGQGVGAAYLELIRLLRTHLVDDFYVTINKYGRSDLTHYHTINPTYFANSFSPARGRKIGYVHFLPDTLERSIKLPGVAKKVFYQYVIDFYKRMDQIVVVNPIFIDKLTEYGLDRNKIRYIPNFVAKSEFYEQTQAKKNATRQELGIPQDKFVVFGDGQVQARKGVDDFAKLAEANPDYQFIWAGGFSFGKITDGYDHFKQLVENPPKNLTFTGIIDREKLVDYLNMADLFLLPSFDELFPMSVLEAFSCGTPVLLRDLDLYRAIIDGYYLAGKDSAEMNEQLRFAATHPEVLARQQELSRKASQQYSEDHLAEIWRDFYQEQYQLGRELGQISYE” as the sequence, how does the “soluble on expression in E. coli” value read?
**A.** not soluble

**Q.** Which “soluble on expression in E. coli” value does the source give for “MDGEEKTYGGCEGPDAMYVKLISSDGHEFIVKREHALTSGTIKAMLSGPGQFAENETNEVNFREIPSHVLSKVCMYFTYKVRYTNSSTEIPEFPIAPEIALELLMAANFLDC” here?
**A.** soluble

**Q.** Which “soluble on expression in E. coli” value does the source give for “MLARSDRLSVVAVVEGTRKQPDPATFIGKGKAEEISQILAQTHAAMVIFNHELSPVQQRNLSMVLACRIIDRTSLILEHHHHHH” here?
**A.** not soluble

**Q.** Which “soluble on expression in E. coli” value does the source give for “MGSDKIHHHHHHMSSPSFNVEEHKKMLQSYFNGQGFQRWASIYGDDKLSTVRSTVRQGHAVMMDKAFEWLQKTGLPKGSKILDAGCGTGLFTIRLAKSGYRVKAADIAEQMVNKTREDAEKAGVAGNVEFEVNSIESVSGTFDAVVCFDVLIHYPAEGFAHAFSNLAGLTKGPIIFTYAPFNNILAFQHWIGGFFPKKERRTTIQMIKDKEMQRVLSELGLKIVSQQKISFGFYHTMLMHVARR” here?
**A.** not soluble

**Q.** Which “soluble on expression in E. coli” value does the source give for “MGSSHHHHHHGKTIFVIVPTNEEQVAFLEALAKQDELNFDWQNPPTEPGQPVVILIPSDMVEWFLEMLKAKGIPFTVYVEEGGSENLYFQGGGGGGYCAPTGRGADPKFYTPDAARKRDEQDKSYPVPKKLLKVRFLSDVGNTMPIAFVPLQREVEVLVGEPALAFYSAYNRSNRTLLGVSSYTIAPPEVTNYLNKIQCFCFEEQRFKPHELVEMPVFFYIDRDFLNDSMVNWLDEVIVNYTFFNLEKTKDYIFRPNAR” here?
**A.** not soluble

**Q.** With “MGSDKIHHHHHHMKKFLCFIMSVGLILSLVGCGKSGKTNIKVPAKSIDGKDSSISLDIMATNKFLYNVIKDISGNRHNVQFMFKNDIDVKQFDYTSDSINNVSKYNIFMYLGADFEPWASDFIGKLDKNSIATVDMSRGTKILNLDDKVQYGNITVEKNSYYWTDLNNYKTMLVNIKNSLEEKDPKSRDLYEKNFAAYIKKVNDCEKEFKGINDKLKGYTFVTNSSNFDYFFNYAGLDSVKVSEDELSKPDTSKELNDKLKDKEKICYIYSDDGSVQSNNAVIQKYKMKTLKFVTYDENSDYICIIKDNIKSMKELIK” as the sequence, how does the “soluble on expression in E. coli” value read?
**A.** not soluble

**Q.** With “MQILFNDQAMQCAAGQTVHELLEQLDQRQAGAALAINQQIVPREQWAQHIVQDGDQILLFQVIAGG” as the sequence, how does the “soluble on expression in E. coli” value read?
**A.** soluble

**Q.** For “LASIFVDVSSVEPGVQLTVKFLGKPIFIRRRTEADIELGRSVQLGQLVDTNARNANIDAGAEATDQNRTLDEAGEWLVMWGVCTHLGCVPIGGVSGDFGGWFCPCHGTHYDSAGRIRKGPAPENLPIPLAKFIDETTIQLG”, which “soluble on expression in E. coli” value is on record?
**A.** soluble

**Q.** With “MYTPVSKSTKSNKNRSSLDKILDAKKPVNLLILGTDTGAEGRSVKNYHGLTDLMMFVTVNPSKKQTRVTTIARDSKVNLPDYPEVSPIKLNSAYSLGGVSETIKTLDKYYSVPIDGYVLVNWASTMKIITKMGGVDVISPLTFDNMGYSFKKGQMYHISGKKALAFVQLRHGDPRQDYGRQERERLVMMAAIKKSVSYKTILNSSFMQSLGDSMQTDLSLNDMIKLAMNYQGVTDNVKSDYAQGKSSSVNNLEHHHHHH” as the sequence, how does the “soluble on expression in E. coli” value read?
**A.** soluble

**Q.** With “ELGIKRESKLEFKLWYDDEKTPEALVFVVQGMGDDISSIQYVGDYMVRQFNTAVVGVNYHCIGNRPQTGSSFFMDDIDKLILKASCEAADIKLPYDVDKIQDYKAMSEIFHFVNNQIVEGKQKGNFTPNYFLNLHVSLQPTKNEYQNFGIMQAQDLLNVALYLKKHAPFDTMGGGIPIIMIGGSHGGYLAHLAAKIAPWLVDGVLDNSAYAKFLWRVVGFGKEIDFMQYSEFATFDFFHHIKTHCSTKTFWTSNSSSPRFFSPARRKIRNLLEEDHLLKQSKCLKTCFISYHSLYDEYVSLKEKTMFYEELEKLGFDVTLHSIT” as the sequence, how does the “soluble on expression in E. coli” value read?
**A.** not soluble

**Q.** For “MSTVRSIYYRGSLEHCNYTCSYCPFGRKSVSADTTEDQEALDRFISRIGGWKYGSLRILIIPYGEAMIHRYYREGIMRLAAMPHVIGVSCQTNLSFSVSRFLDEAEAEQADVSKFRFWASYHPEMVGVGEFASKVEMLRAAGIGVCAGAVGDPSAKEQIRKLRQLLDPSVYLFVNAMQGLRKPLSEEDIRFFGEIDNLFDYDRRNAKACLDGCVGGRETLFIDRKGDMYACPRSGIRMGNFYDDSTSDFQPFCLRKVCDCYIAFSNLCDTPLRRMMGDGALWRIPERKKVEAVFFDVDGTLTDAQGRIPDRTVSVLEYMAKRLPLYLSTALPVSHAKKRLGNVFGLFSGGVFADGGLLCYGETIECVPIANPMTAGFPGCRVTRYTREGKVFKYAVLAPNTREAVRWLTELDEEAYQLYQEGRLLTVVDSKASKKNGLITLCARLGISLREVLVVGNTMHDWPMMSVAGYSCAVMDAEEKLRKLSGYVLNPDSIPVFFDILEHHHHHH”, which “soluble on expression in E. coli” value is on record?
**A.** not soluble

**Q.** Which “soluble on expression in E. coli” value does the source give for “KQKGNYGEYLADDNLINNPKLKEAGYDLERIGGKVPTSPDDKITKGIDGIYINKNPNSNIKYVIDEAKFGKAGLSAKTRDGKQMSDSWLMGSRSRDNRILKALNNNEELADDILEALANNQVERILSKVDINGEVTTYRLDSEGNIIGLWP” here?
**A.** soluble

**Q.** Which “soluble on expression in E. coli” value does the source give for “MTQATPFQLPPLALYVHIPWCVRKCPYCDFNSHAAGPELPEEAYVDALLADLEQDLRHVHGRRLGSIFFGGGTPSLFSAKALGRLLEGVERRVGFADGIEITLEANPGTFEQVKFADYRRLGINRLSIGVQSFQADKLQALGRIHDGAEAVRAADMARQAGFDNFNLDLMHGLPGQSLDDALADLRQALALAPTHLSWYQLTMEPNTVFWSQPPELPEDDILWDIQEAGQALLDEHGYRQYETSAYARDGLRARHNLNYWSFGDFLGIGAGAHAKLSAPDGRIVRTWKTRLPKDYLNPQKAFQAGERPLEAADLPFEFMMNVLRLVDGVPAALYPQRTGQPLAAIADACAAARDAGLLADDPQHLRPSERGQLFLNDLLQHFLP” here?
**A.** not soluble

**Q.** With “MSLFTGPIVAVGEYVEGLGEGRRYVSIPYYRREIERVIGARPFPGTFNVRVEREERESLRELASSYGYRIEPHGEYGGAWLYPCLVNGRPAWLVFPDLTEHRDQVELISETELRRELNVIHGDMVKIEVWGPSTWKLARRLTCGPSGGREGHHHHHH” as the sequence, how does the “soluble on expression in E. coli” value read?
**A.** soluble

**Q.** For “MLRRGYKASERRRHLSERLSWHQDQALSSSIYLLREMGPTGFLLREEEPEYMDFRVFLGNPHVCNCSTFPKGGELCKHICWVLLKKFELPRNHESALQLGLGEREISDLLRGIHRVQTPQPGTNDENEHVEEDGYIKQKEIDSEDICSICQELLLEKKLPVTFCRFGCGNSIHIKCMKILANYQSTSNTSMLKCPLCRKEFAPLKLILEEFKNSSKLVAAAEKERLDKHLGIPCNNCKQFPIEGKCYKCTECIEYHLCQECFDSYCHLSHTFTFREKRNQKWRSLEKRADEVVKYIDTKNETEEKMSHFQEKQGQVYTPKHIVRSLPLQLITKNSKLLAPGYQCLLCLKAFHLGQHTRLLPCTHKFHRKCIDNWLFHKCNSCPIGGQVIYNPLTWKNSAVNGQAHQSVSNRDIIHLSKQKEPDLFIPGTGLVLKQNRLGILPSIPQCNFDELNTPQSPKDAYENTTIDNLCSIKLDNSNSKKLTYEYKISQHFPRYLQDLPTVSFGKIPSQTLLPPIVHKNIVCPTAMESPCISGKYHTSLSRVTKGCKCNNHNLKKTPATKIREDNKRSTLLPEDFNLIVNWSTAKLSLSKRYSNCMGEITRKCSHLSRQPVSHSVNTKSTELSLIIEGVQL”, which “soluble on expression in E. coli” value is on record?
**A.** soluble

**Q.** With “MGSDKIHHHHHHMLTYTVYSEAGGVGKTTMAANLAVADARAGHDVLAIDMDPQEGSLSFLFDVADHRTDSEADSLVRHLVERPRGPFSDLIETSEGVDVLPAHNSLEVLSKHLRRREEEAADFGENWNPNVQLLRVLKDAGVPSEYDTVIIDPPATADVKLYNALHATRNLVIPFEPSGKGQQSVAGLADLVTGLEDTLDINVGVLAAVPNRFKGTNDQEEMLKRLQAESYDIPVVFRERTSLLEGCWRKQCSAFKYIEEHRSRERDYEIETLEQFEELAAHLRQTREQEATA” as the sequence, how does the “soluble on expression in E. coli” value read?
**A.** not soluble

**Q.** Which “soluble on expression in E. coli” value does the source give for “SLGKILSKTAIAIVLASGLLSACTSTTDVFHNGYVMDDQSLQLIPEGSSREQVLLTMGTPSTTATFGNEVFYYISQKRVRRAAFLKPSLVEQNILAIYFNKDGVIERKANYTLQDGKVFDSISRTTPTGGKDLTFLQQLLSGGTSGANIAKS” here?
**A.** soluble

**Q.** For “MLYNMDERFEIKDIVAREVIDSRGNPTVEVEVITKGNGYGSAIVPSGASTGTHEALELRDKEKRFGGKGVLMAVENVNSIIRPEILGYDARMQREIDTIMIELDGTPNKSRLGANAILAVSLAVAKAAAATAKIPLYKYLGGFNSYVMPVPMMNVINGGKHAGNDLDLQEFMIMPVGATSISEAVRMGSEVYHVLKNVILEKYGKNAVNVGDEGGFAPPLKTSREALDLLTESVKKAGYEDEVVFALDAAASEFYKDGYYYVEGKKLTREELLDYYKALVDEYPIVSIEDPFHEEDFEGFAMITKELDIQIVGDDLFVTNVERLRKGIEMKAANALLLKVNQIGTLSEAVDAAQLAFRNGYGVVVSHRSGETEDTTIADLSVALNSGQIKTGAPARGERTAKYNQLIRIEQELGLSKYAGRNFRCPF”, which “soluble on expression in E. coli” value is on record?
**A.** soluble

**Q.** With “MGRVFMVDLEGNIYICKLCKTHLSTDQDIMSKSFQCKNGRAYLFNNVVNVSVGEKEDRMMITGLHNVVDIFCVGCGSNVGWKYEFAHEKSQKYKEGKSVLELYKISGPHDSNDLVSDGDDA” as the sequence, how does the “soluble on expression in E. coli” value read?
**A.** not soluble

**Q.** For “MLFMVKFRWETEFKETDIGKIPKDWDVKKIKDIGEVAGGSTPSTKIKEYWGGDIPWITPKDLANYEYIYISRGERNITEKAVKECSLRIFPKGTILLTSRAPIGYVAIAKNPLTTNQGFRNIIPKDGVVSEYLYYLFKTKTMSEYLKDISGGSTFPELKGSTLKEVEIPYPSPEEQQKIATVLSYFDDLIENKKKQNEILEKIALELFKNWFIDFEPFKNEEFVYNDELDKEIPKGWEVKRLGDILKVESGSNAPQREIYFENAKIPFVRVKHLVKGVCIESSDFINELALKDYKMKLYNEKSIIFQKSGESLKEARVNIVPFKFTAVNHLAVIDSSMLNEKHYFIYCLLRFLLKEIVYSVKGTTLPYLKISDIENKYIIIPPQPILQKFHSLVQPLFEKIINNQKQIMVLKKIRDALLPKLVFGELRVEEL”, which “soluble on expression in E. coli” value is on record?
**A.** soluble
